From patent publication US20220112276A1 (Janssen / Centocor, published 2022)
Changes are numbered by the printed parent chain.

B1: 01A06R3LS His-tagged VHH (VHH)
VHH: EVQLVESGGGVVQAEDSLRLSCAASGLPFSSSRMGWFRQAPGKEREFVAAIGWSGRSTYKYYADSVKGRFTVSGDNAKKTLDLQMKDLKPEDTAVYYCAAHPDYYGDPRTSGAYRYWGQGTQVTVSS
B2: 01B07R3L His-tagged VHH (VHH)
VHH: B1 VHH with A40V, K60R, A63D, K79N, D87G, H101D, D103N, P108V, A113T, R115Q
B3: 01B05R2 His-tagged VHH (VHH)
VHH: EVQLVESGGGLVQAGGSLRLSCAASGRSLSFDTYAMGWFRQAPGKEREFVASIDWNGGSTYYADSVKGRFTISRDNARNTVNLRMNSLKPDDTAVYYCAAARYYTSGTYFPANYWGQGTQVTVSS
B4: 03H05R3 His-tagged VHH (VHH)
VHH: QVQLVESGGGLVQAGGSLSLSCAASGRSLSFDTYAMSWFRQAPGKEREFVASIDWNGGSTSYADSMKGRFTISRDNAKNTVNLRIRSLKPDDTAVYFCASARYYIGGTYFPANYWGQGTQVTVSS
B5: 03C10R3 His-tagged VHH (VHH)
VHH: B3 VHH with E1Q, A14R, S30G, S59N, R78K, V95A, Q117R, Q120L
B6: 01H05R3 His-tagged VHH (VHH)
VHH: B3 VHH with E1Q, S30G, A35G, G37A, V66M, R78K, G107S
B7: 03G05R3 His-tagged VHH (VHH)
VHH: EVQLVESGGGLVQAGDSLRLSCAASGRALSFNTYAMAWFRQAPGKEREFVASITYNGGSTYYADSVKGRFTVTRDNGKNTVTLRMNSLKPDDTAVYYCASAQYWRSGTSFPANYWGQGTQVTVSS
B8: 01D06R2 His-tagged VHH (VHH)
VHH: QVQLVESGGGLVQAGDSLRLSCAASGRTLSFDTYAMAWFRQAPGKEREFVASIDWNGVNTYYADSVKGRFTVTRDNTKNTVTLRMNSLKTDDTAVYYCAAAQYYRSGTSFPANSWGQGTQVTVSS
B9: 03G07R3 His-tagged VHH (VHH)
VHH: B7 VHH with A28T, N32D, T54D, Y61D, G77A, Q102R, W104Y, A112V
B10: 01F04R3 His-tagged VHH (VHH)
VHH: B7 VHH with E1Q, K67R, N76S, Q120L
B11: 01C04R3 His-tagged VHH (VHH)
VHH: B7 VHH with E1Q, N79D, Q120L
B12: 01B04R3L His-tagged VHH (VHH)
VHH: EVQLVESGGGLVQAGDSLRLSCAASGRTFTTYVMGWFRQAPGKEREFVATIAWSGSTNYKYYADSVKGRFTISRDNAKNTVYLRMNSLKPEDTAVYYCAASTVLTDPRRLNEYANWGQGTLVTVSS
B13: 01B07R2L His-tagged VHH (VHH)
VHH: EVQLVESGGGLVQAGGSLRLSCAASGRTFSSDAVGWFRQAPGKEREFVAHIHWSGDFTTYYYYGDFVKGRFTISRGTAKNTVYLQMNSLKPEDTAVYYCAAPKGAIGDPRSTREYDYWGQGTLVTVSS
B14: 01A02R3 His-tagged VHH (VHH)
VHH: EVQLVESGGGLVQSGGSLRLSCAASGRTFDQFTVGWFRQAPGKEREFVTAIRWSGSTTYRYYADSVKGRFTISRDNARNTVDLQMNSLKPEDSAVYYCAGQMSQWSDPRGDDYDSWGQGTLVTVSS
B15: 01D05R2LS His-tagged VHH (VHH)
VHH: EVQLVESGGGLVQTGGSLRLSCAASGRTFSPYAMGWFRQAPGKEREFVAAIRWSGATTYKYVGDSVQGRFTISRDAAGNTVYLQMNSVKPEDTAVYYCAADRVPKDISIDPRNPKDWDYWGKGTLVTVSS
B16: 01H01R2LS His-tagged VHH (VHH)
VHH: B15 VHH with D64G, L125Q
B17: 01B06R2LS His-tagged VHH (VHH)
VHH: B15 VHH with E1Q
B18: 03D09R3 His-tagged VHH (VHH)
VHH: QVQLVESGGGLVQAGGSLRLSCAASGRTVSSVAMGWFRQAPGKEREFVATISWTGGSTYYADSVKGRFTISRDNAKNTAYLQMNSLKPEDTAVYYCAAGYPADPIALMTLRYEYDYWGQGTLVTVSS
B19: 03C05R3 His-tagged VHH (VHH)
VHH: EVQLVESGGGLVKAEGSLRLSCVASTSIASINVMGWYRQAPGKERELVARISGGGITHYAESVEGRFTISRDNAKNTVHLQMNGLKPEDTAAYYCKADVFASSGHVTTYWGQGTLVTVSS
B20: 01B08R2 His-tagged VHH (VHH)
VHH: EVQLVESGGRLVQAGGSLRLSCAASGLTRSDYAMGWFRQAPGKEREFVATLKWSEGSRFMYRAEDVKGRFTISSGAAKTTVWLDMDALNPEDTAVYYCAAGFNVGFVRRASEYNFWGQGTLVTVSS
B21: 01B02R2L His-tagged VHH (VHH)
VHH: EVQLVESGGGLVQAGGSLKLACAASGLTFSSYRMGWFRQAPGKEREFVAAIDWNGRGTYYRYYADSVKGRFTISRDNAKNTMCLQMNSLKPEDTAVYYSAIDSRTSIDPRTSGHYRYWGQGTLVTVSS
B22: 01C09R3LS His-tagged VHH (VHH)
VHH: EVQLVESGGGLVQAGGSLRLSCAASGRTINTYVMGWFRQAPGKEREFVARIDWSGSSTDYADSVKGRFTISRDNAKNTVYLQMNSLKPEDTAVYYCAGSAYYSGYVTHRDFGSWGQGTQVTVSS
B23: 01F03R3LS His-tagged VHH (VHH)
VHH: B22 VHH with T31G, K43E, N77I, Q119L
B24: 01C05R3LS His-tagged VHH (VHH)
VHH: B22 VHH with Q119L
B25: 01E09R3LS His-tagged VHH (VHH)
VHH: B22 VHH with I70T, S85G, Q119L
B26: 01F11R2 His-tagged VHH (VHH)
VHH: B22 VHH with I29L, S57T
B27: 01B12R3LS His-tagged VHH (VHH)
VHH: B22 VHH with T31G, N77T
B28: 01D07R3LS His-tagged VHH (VHH)
VHH: B22 VHH with E1Q, Q119L
B29: 01B10R3LS His-tagged VHH (VHH)
VHH: B22 VHH with E1Q, N30Y, T31G
B30: 03F01R3 His-tagged VHH (VHH)
VHH: QVQLVESGGGLVQAGESLRLSCAASGDVFDIGTMAWYRQPPGKQRELVASITMGGSTDVADSAKGRFTISRDNAKNTVYLHMDSLKPEDTAVYYCNAQFFWPKRHDYWGQGTQVTVSS
B31: 03D02R3 His-tagged VHH (VHH)
VHH: EVQLVESGGGLAQAGGSLRLSCTASGTISKIDVMAWYRQTPGNERELVARIFSNDVTHYVDSAKGRFTLSRAQDKNTVDLQMNSLEPDDAAVYYCNAQIWSDMRGRMDTYWGQGTLVTVSS
B32: 01B04R2 His-tagged VHH (VHH)
VHH: EVQLVESGGGLVQAGGSLRLSCAASGRTFTSYTMGWFRQAPGKEREFVAAIKWNGGSTYYADSVKGRFTISRDNAKNTVYLQMNSLKPEDTAVYYCAADGDPYFSPTDGIVWHAPHQSEYDYWGQGTLVTVSS
B33: 03D12R3 His-tagged VHH (VHH)
VHH: QVQLVESGGGLVQAGGSLRLSCAASGRTFSSYAMGWFRQAPGKEREFAAVITWNGGSTHYADSVKGRFTISRDNAKNTVYLQMNSLKPEDTAVYYCAADPMNSPYWGQGTQVTVSS
B34: 03D01R3 His-tagged VHH (VHH)
VHH: EVQLVESGGGLVQPGGSLRLSCAASGFTFRTYYMGWFRQAPGKEREFVGVTRSSDDVTYYADSVKGRFTISRDNAKNTVYLQMSRLKPEDTAVYYCAAKPVPITRYSFPQIGEEYDYWGQGTLVTVSS
B35: 02B09R3 His-tagged VHH (VHH)
VHH: B34 VHH with Q39R, N77D
B36: 01C09R3 His-tagged VHH (VHH)
VHH: B34 VHH with P14A
B37: 01D08R3 His-tagged VHH (VHH)
VHH: QVQLVESGGGLVQAGDSLRLSCAASGRTSSLYNMGWFRQAPGQEREFVAAIHWGGGRTYYADSVKGRFTISRDNAKNTVYLQMNSLEPGDTANYYCAARRAPELLDDYKQKPEEIGAYHYWGQGTQVTVSS
B38: 03H01R3 His-tagged VHH (VHH)
VHH: B37 VHH with Q1E, D16G, L31I, A117T

The binders below were run against T1, recombinant human pIgR (hpIgR) (human, UniProt P01833 19-638, limits assumed) (assay: ELISA, periplasmic VHH, BSA subtracted).
T1 construct: probably the ECD
Protocol: Initial Library Screening: After each panning round showing enrichment, 94 individual clones were expressed and tested in an off-phage initial screen for specific binding to mpIgR or hpIgR (respectively depending on the antigen used). Screening of monoclones in an off-phage format was performed by transforming the phagemid pool into a non-amber-suppressor strain of E. coli and picking random colonies. The VHH proteins were recovered in the periplasmic fraction by performing osmotic shock. Periplasmic fractions containing His-tagged nanobodies were tested for binding to hpIgR or mpIgR. Bound nanobody was detected with a polyclonal anti-alpaca VHH domain antibody. Each clone was also tested for non-specific binding to BSA in parallel. The ELISA values obtained on BSA were subtracted from the ELISA values obtained on the respective pIgR antigen.
Repeat Testing of Positive Hits: The hits identified in the initial screen of the phage pools were re-tested for binding to either hpIgR or mpIgR. Periplasmic fractions were prepared again by performing osmotic shock. Periplasmic fractions containing His-tagged nanobodies were tested for binding to mpIgR. In this assay, bound nanobody was detected with an anti-VHH antibody. Each clone was also tested for non-specific binding to BSA in parallel. The ELISA values obtained on BSA were subtracted from the ELISA values obtained on the respective pIgR antigen.

T1 sequence (P01833 19-638 limits assumed): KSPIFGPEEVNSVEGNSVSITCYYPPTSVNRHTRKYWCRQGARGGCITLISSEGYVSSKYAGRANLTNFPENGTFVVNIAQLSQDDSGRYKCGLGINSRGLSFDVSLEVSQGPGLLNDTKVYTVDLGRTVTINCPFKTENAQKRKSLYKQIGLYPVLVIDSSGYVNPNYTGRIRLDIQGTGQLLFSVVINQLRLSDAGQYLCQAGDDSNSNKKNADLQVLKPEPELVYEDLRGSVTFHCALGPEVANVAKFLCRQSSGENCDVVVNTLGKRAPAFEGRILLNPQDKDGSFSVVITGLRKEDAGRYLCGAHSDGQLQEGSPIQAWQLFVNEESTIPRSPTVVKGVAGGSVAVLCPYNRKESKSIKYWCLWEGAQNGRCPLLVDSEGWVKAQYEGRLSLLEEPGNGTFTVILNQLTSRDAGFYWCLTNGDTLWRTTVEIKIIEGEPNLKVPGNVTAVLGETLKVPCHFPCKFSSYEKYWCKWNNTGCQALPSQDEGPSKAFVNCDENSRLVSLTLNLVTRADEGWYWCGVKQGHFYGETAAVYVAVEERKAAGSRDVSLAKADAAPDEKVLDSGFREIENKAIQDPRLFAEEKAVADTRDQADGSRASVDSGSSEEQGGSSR

| Binder | ELISA (OD) |
| --- | --- |
| B1 | 1.95 |
| B2 | 2.29 |
| B3 | 2.07 |
| B4 | 0.46 |
| B5 | 1.77 |
| B6 | 1.27 |
| B7 | 1.92 |
| B8 | 0.5 |
| B9 | 1.92 |
| B10 | 1.83 |
| B11 | 2.33 |
| B12 | 2.12 |
| B13 | 0.67 |
| B14 | 1.98 |
| B15 | 2.41 |
| B16 | 1.17 |
| B17 | 1.9 |
| B18 | 1.82 |
| B19 | 0.99 |

| Binder | ELISA (OD) |
| --- | --- |
| B20 | 1.94 |
| B21 | 1.94 |
| B22 | 1.64 |
| B23 | 2.35 |
| B24 | 1.89 |
| B25 | 1.97 |
| B26 | 0.62 |
| B27 | 2.17 |
| B28 | 2.07 |
| B29 | 1.91 |
| B30 | 1.97 |
| B31 | 2.07 |
| B32 | 2.16 |
| B33 | 2.27 |
| B34 | 1.84 |
| B35 | 1.13 |
| B36 | 1.29 |
| B37 | 2.11 |
| B38 | 2.07 |
